Values quoted from earlier work in article PMC3064480.

Target: TβRII ED (Homo sapiens) (UniProt P37173)
Assay: SPR

Sequence of TβRII ED (Homo sapiens) (P37173 23-166): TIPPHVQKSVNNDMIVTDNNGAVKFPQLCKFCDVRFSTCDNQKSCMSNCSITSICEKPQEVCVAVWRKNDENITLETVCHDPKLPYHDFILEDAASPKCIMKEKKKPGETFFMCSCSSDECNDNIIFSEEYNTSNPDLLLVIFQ
Sequence of TGF-β1 (P01137 279-390): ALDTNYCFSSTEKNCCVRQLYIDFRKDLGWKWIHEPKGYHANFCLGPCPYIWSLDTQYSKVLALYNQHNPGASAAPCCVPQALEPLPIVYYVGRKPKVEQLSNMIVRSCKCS

Substance: TGF-β1 (from UniProt P01137)
- Kd: 5 pM
